{
  "source": "patent US20050058651A1",
  "about": "(published 2005)",
  "target": "T1, rat hnRNP M4 expressed in P388D1 mouse macrophage cells by transient transfection of hnRNP M4/pBK-CMV (rat, UniProt Q62826 2-690)",
  "T1 construct": "also called pBK-CMV/hnRNP M4",
  "T1 sequence": "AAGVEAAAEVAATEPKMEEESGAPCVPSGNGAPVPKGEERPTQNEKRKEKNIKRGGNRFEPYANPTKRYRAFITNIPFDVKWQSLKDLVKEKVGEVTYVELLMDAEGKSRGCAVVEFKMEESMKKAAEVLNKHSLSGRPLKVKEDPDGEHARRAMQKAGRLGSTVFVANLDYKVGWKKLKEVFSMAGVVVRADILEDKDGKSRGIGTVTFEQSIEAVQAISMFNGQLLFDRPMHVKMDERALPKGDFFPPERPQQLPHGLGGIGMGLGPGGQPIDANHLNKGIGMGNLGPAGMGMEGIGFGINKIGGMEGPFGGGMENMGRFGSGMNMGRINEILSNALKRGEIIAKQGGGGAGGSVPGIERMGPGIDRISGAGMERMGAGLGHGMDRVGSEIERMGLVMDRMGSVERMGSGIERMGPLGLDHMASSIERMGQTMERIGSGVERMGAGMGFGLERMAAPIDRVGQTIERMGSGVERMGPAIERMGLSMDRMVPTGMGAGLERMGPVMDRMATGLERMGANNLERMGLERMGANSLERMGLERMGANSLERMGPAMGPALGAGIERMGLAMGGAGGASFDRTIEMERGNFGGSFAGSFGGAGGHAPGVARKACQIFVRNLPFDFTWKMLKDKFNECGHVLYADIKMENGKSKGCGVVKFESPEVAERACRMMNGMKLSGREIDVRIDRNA",
  "test": "125I labeled CEA binding/uptake by P388D1 cells 48 h after transient transfection, compared with matching vector",
  "source_text": "To begin to elucidate the mechanism underlying the intracellular signaling associated with KC activation and CEA binding, the hnRNP M4 cDNA in the pBK-CMV expression vector was introduced into CEA non-responsive macrophage cell lines. The hnRNP M4 transcription in this system was driven by the CMV promoter. […] An approximately 5 times increase in CEA uptake was observed on transfecting […] of hnRNP M4/pBK-CMV plasmid. This fact implies that hnRNP M4 cDNA can initiate CEA binding in P388D1 […] macrophage cell line and can act as a receptor for CEA. […] At present, the reasons for lack of response by IC21 cells are not known.\nTransient transfection of hnRNP M4 plasmid was carried out in P388D1 mouse lymphoid macrophage, IC21 mouse peritoneal and CRL2192 rat alveolar macrophage cell lines. As a positive control were used rat KC. The P388D1 cells were propagated in DMEM medium supplemented with 10% horse serum. The CRL 2192 cells were grown in F-12K medium (Kaighn's modification) supplemented with 15% FBS. The IC21 cells were grown in RPM1 1640 ATCC modified medium supplemented with 10% FBS. All cells were maintained at 37° C. in 5% CO₂ atmosphere. All tissue culture products were obtained from Life Technologies, USA. Cells for transfection were plated at 2-2.5.10⁵ cells per well in six well tissue culture clusters (Nunc products, Germany). […]",
  "data": [
    {"binder": "carcinoembryonic antigen (CEA) (ligand, UniProt P06731 35-685, looked up, 125I label in the phage-lift and cell binding assays; unlabeled soluble CEA in the blot overlay, also called soluble CEA; 125I labeled CEA) KLTIESTPFNVAEGKEVLLLVHNLPQHLFGYSWYKGERVDGNRQIIGYVIGTQQATPGPAYSGREIIYPNASLLIQNIIQNDTGFYTLHVIKSDLVNEEATGQFRVYPELPKPSISSNNSKPVEDKDAVAFTCEPETQDATYLWWVNNQSLPVSPRLQLSNGNRTLTLFNVTRNDTASYKCETQNPVSARRSDSVILNVLYGPDAPTISPLNTSYRSGENLNLSCHAASNPPAQYSWFVNGTFQQSTQELFIPNITVNNSGSYTCQAHNSDTGLNRTTVTTITVYAEPPKPFITSNNSNPVEDEDAVALTCEPEIQNTTYLWWVNNQSLPVSPRLQLSNDNRTLTLLSVTRNDVGPYECGIQNELSVDHSDPVILNVLYGPDDPTISPSYTYYRPGVNLSLSCHAASNPPAQYSWLIDGNIQQHTQELFISNITEKNSGLYTCQANNSASGHSRTTVKTITVSAELPKPSISSNNSKPVEDKDAVAFTCEPEAQNTTYLWWVNGQSLPVSPRLQLSNGNRTLTLFNVTRNDARAYVCGIQNSVSANRSDPVTLDVLYGPDTPIISPPDSSYLSGANLNLSCHSASNPSPQYSWRINGIPQQHTQVLFIAKITPNNNGTYACFVSNLATGRNNSIVKSITVSASGTSPGLSA", "values": [
      {"measurement": "fold increase in CEA uptake (against vector-transfected cells)", "value": "~5", "unit": "times"}
    ]}
  ]
}
